In one test the target is cry1_mouse Cry1 (UniProt P97784).
A further test deals with cbp_mouse Crebbp (UniProt P45481).
Chain of cbp_mouse Crebbp (P45481 whole entry): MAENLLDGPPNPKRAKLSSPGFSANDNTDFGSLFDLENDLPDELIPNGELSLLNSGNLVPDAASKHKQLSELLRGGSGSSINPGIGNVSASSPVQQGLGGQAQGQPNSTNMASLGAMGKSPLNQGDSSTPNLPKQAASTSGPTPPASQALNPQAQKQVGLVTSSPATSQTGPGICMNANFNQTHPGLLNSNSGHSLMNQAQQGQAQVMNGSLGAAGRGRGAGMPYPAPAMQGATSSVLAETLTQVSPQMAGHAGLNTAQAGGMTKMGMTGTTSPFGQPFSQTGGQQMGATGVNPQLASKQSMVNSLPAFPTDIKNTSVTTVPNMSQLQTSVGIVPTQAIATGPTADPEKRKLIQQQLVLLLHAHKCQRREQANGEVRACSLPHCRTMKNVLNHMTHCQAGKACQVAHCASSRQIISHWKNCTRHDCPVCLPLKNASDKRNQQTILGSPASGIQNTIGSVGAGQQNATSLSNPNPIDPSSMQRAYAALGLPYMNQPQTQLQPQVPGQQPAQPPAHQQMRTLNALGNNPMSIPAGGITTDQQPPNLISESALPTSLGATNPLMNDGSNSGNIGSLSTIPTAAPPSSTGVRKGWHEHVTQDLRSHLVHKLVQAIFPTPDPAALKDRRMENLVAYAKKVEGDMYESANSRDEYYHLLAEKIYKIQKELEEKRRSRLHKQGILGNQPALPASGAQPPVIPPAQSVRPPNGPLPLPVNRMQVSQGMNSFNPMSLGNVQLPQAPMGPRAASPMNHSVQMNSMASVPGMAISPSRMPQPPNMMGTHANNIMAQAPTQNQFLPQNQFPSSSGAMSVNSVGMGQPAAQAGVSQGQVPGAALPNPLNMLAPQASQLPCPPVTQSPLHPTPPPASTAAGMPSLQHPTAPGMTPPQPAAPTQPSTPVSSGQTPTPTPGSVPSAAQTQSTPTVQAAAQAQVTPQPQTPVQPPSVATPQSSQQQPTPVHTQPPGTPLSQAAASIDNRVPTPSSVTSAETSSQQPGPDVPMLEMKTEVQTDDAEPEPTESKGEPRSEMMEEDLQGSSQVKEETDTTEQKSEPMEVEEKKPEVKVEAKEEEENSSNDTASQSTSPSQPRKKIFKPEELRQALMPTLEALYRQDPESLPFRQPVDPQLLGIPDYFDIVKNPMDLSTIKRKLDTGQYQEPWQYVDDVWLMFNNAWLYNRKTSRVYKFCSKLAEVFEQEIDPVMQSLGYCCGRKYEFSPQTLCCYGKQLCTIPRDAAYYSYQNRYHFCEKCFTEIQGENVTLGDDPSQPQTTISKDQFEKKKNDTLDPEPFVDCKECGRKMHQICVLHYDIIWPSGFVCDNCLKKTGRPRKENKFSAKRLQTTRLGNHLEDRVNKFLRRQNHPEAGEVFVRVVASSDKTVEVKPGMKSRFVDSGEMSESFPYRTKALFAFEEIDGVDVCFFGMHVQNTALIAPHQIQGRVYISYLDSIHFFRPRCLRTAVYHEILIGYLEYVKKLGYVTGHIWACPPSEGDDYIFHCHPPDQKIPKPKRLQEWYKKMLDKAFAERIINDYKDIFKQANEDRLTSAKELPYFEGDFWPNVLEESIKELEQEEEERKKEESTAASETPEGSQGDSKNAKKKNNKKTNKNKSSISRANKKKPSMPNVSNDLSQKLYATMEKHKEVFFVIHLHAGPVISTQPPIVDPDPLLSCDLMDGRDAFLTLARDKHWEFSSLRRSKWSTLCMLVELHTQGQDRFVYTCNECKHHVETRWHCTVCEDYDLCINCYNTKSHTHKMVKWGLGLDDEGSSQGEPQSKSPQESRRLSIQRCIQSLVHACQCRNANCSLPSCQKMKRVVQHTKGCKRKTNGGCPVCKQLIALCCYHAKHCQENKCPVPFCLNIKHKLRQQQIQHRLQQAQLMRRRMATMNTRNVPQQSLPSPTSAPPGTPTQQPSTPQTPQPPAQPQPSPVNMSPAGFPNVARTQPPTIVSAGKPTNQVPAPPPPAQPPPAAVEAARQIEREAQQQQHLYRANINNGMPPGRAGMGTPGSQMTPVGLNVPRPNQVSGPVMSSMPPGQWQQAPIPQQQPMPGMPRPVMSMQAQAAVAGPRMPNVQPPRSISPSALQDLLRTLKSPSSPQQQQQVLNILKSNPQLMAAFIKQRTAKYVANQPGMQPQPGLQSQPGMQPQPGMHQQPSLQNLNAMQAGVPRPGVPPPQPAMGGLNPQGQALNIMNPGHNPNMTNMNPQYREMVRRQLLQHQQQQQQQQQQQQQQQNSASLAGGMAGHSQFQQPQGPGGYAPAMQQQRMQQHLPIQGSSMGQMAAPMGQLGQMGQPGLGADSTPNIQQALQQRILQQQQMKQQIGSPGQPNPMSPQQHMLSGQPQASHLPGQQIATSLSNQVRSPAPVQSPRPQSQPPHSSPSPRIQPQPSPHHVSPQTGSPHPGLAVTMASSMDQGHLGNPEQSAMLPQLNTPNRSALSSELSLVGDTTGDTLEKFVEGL

Chain of cry1_mouse Cry1 (P97784 whole entry): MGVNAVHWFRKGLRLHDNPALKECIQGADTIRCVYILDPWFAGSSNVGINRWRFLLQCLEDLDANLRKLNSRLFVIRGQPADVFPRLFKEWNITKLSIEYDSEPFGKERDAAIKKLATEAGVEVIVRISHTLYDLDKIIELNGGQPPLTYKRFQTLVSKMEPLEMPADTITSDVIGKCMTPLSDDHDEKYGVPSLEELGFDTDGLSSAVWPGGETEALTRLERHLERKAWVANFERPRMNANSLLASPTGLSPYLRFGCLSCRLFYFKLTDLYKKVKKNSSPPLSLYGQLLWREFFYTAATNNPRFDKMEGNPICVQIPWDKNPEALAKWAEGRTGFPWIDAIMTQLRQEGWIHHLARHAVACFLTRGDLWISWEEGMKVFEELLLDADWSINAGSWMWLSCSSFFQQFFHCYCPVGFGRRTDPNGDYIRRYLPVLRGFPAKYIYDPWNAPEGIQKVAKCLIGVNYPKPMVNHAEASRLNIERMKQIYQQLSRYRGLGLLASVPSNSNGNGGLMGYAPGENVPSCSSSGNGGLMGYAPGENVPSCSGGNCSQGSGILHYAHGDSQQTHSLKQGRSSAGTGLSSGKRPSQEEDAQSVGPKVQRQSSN
Chain of Basic helix-loop-helix ARNT-like protein 1 (Mus musculus), Q9WTL8-4 L606A;L607A (Q9WTL8 other isoform, or with tags, fused parts or gaps L606A;L607A): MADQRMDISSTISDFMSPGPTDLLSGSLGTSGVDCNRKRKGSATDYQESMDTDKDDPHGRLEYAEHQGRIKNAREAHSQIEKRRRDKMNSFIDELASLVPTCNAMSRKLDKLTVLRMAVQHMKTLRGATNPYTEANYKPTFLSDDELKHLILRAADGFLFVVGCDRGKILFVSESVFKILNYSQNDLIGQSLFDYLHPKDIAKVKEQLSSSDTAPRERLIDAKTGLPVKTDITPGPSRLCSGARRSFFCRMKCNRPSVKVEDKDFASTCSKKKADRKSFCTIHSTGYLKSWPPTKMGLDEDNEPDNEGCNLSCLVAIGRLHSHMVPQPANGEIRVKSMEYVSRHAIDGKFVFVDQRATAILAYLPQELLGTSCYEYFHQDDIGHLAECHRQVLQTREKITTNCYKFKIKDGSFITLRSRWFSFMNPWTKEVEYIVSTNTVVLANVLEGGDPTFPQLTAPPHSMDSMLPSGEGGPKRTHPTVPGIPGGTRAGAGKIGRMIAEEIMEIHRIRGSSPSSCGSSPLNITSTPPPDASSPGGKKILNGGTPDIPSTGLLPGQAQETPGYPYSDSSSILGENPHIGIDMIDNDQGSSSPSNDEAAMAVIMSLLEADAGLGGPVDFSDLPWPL
Chain of Basic helix-loop-helix ARNT-like protein 1 (Mus musculus), Q9WTL8-4 V602A;I603F (Q9WTL8 other isoform, or with tags, fused parts or gaps V602A;I603F): as the sequence (Q9WTL8 other isoform, or with tags, fused parts or gaps L606A;L607A) above

Consider “Basic helix-loop-helix ARNT-like protein 1 (Mus musculus), Q9WTL8-4 L606A;L607A”, for which the “effect of a mutation on the interaction” value with cry1_mouse Cry1 and with cbp_mouse Crebbp was “disrupting interaction strength” in each case.

Regarding “Basic helix-loop-helix ARNT-like protein 1 (Mus musculus), Q9WTL8-4 V602A;I603F”, in the test with cry1_mouse Cry1, the “effect of a mutation on the interaction” value is listed as “disrupting interaction strength”.

The values above are taken from IntAct's records for PubMed 25961797.
